Laboratory results reported in patent US12655441B2, “PPO polypeptides tolerant to PPO-inhibiting herbicides and use thereof” (QINGDAO KINGAGROOT CHEMICAL COMPOUND CO., LTD., priority 2021, dated 2026).

Columns and labels:
[1] = test system: PPO-deficient Escherichia coli (ΔhemG); experiment: PPO-deficient E. coli (ΔhemG) transformed by rice OsPPO1 mutant genes, growth on LB medium containing herbicide; conditions: 500 nM compound A
[2] = test system: OsPPO1; experiment: In vitro enzyme activity test of OsPPO1 proteins (fluorescence, substrate protoporphyrinogen); format: biochemical, rice; conditions: enzyme 500 nM, protoporphyrinogen 0.125-16 μM, excitation 410 nm, detection 630 nm
Procedure: Protoporphyrinogen, a substrate catalyzed by PPO, was prepared by reducing protoporphyrin with sodium amalgam. 10 mg of protoporphyrin was dissolved in 10 mL solvent, added with 20% sodium amalgam at the rate of 0.2 g/mL, reacted for 2 hours, then filtered under the protection of nitrogen in dark place. After the reaction was completed, the reaction solution should become achromatic or light brown. The reaction solution was diluted by adding with reaction buffer (100 mM Tris-HCl, 1 mM EDTA, 5 mM DTT, 0.1% Tween 20/80), and 10% hydrochloric acid was used to adjust pH to about 8.0. […]
3) The constructed fusion expression vector pET28a-MBP-OsPPO1 was transferred into E. coli BL21 (DE3), subjected to induced-expression with 0.5 mM IPTG, then purified with the Ni-NTA column, afterwards subjected to thrombin digestion, dialysed, and purified secondly by dextrin-column and Ni-column. […] The collected strains were re-suspended with the Ni-buffer A (50 mM Tris pH 8.0, 500 mM NaCl, 50 mM imidazole), homogenized by high pressure cell homogenizer, and centrifuged at 4000×g at 4° C. for 30 minutes; the supernatant was purified with the Ni column, then the purity thereof was detected by SDS-PAGE. The thrombin enzyme was added according to the quantity of proteins, dialyzed with 50 mM Tris pH 8.0, 500 mM NaCl, 1 mM DTT buffer. […]

[3] = test system: Arabidopsis thaliana; experiment: Herbicide resistance test of Arabidopsis thaliana seeds overexpressing crop PPO1 WT or mutant on MS medium; format: in vivo; conditions: overexpressed in Arabidopsis thaliana seed
Procedure: 1) Sowing: plump and vernalized wild-type Arabidopsis thaliana seeds were selected, treated with 75% alcohol for 1 minute, disinfected with 10% NaClO for 6 minutes, and washed with sterile water for 5 to 6 times. After the sterilization was completed, the seeds were placed on a MS medium plate for one week, then transplanted to sterilized nutrient soil (nutrient soil:vermiculite=1:1) and cultured in a greenhouse at (25±2) ° C. with a photoperiod of 16 h/8 h (light/dark).
4) Infestation of Arabidopsis thaliana inflorescences: the uninfected Arabidopsis thaliana with good growth state and lush inflorescences were selected for infection and their fruit pods were cut off from the plants by scissors prior to transformation. The Arabidopsis thaliana inflorescences were dipped in the prepared infection solution for 0.5 to 1 minute. Then the infected Arabidopsis thaliana seedlings were placed in dark and humid conditions for 24 hours. After one week, the infection was repeated.
After the transformation of dipped Arabidopsis thaliana inflorescences, Arabidopsis thaliana TO-generation seeds were collected and sowed on a resistant MS plate containing 30 mg/L hygromycin to screen positive plants.
The obtained overexpressed mutant and wild-type Arabidopsis thaliana seeds of different crops were tested for resistance on a MS medium (petri dish) containing different concentrations of PPO-inhibiting herbicidal compounds, as shown in FIG. 12-23.

[4] = test system: Huaidao No. 5 rice seedlings; format: in vivo
Procedure: Rice seeds were peeled, washed with sterile water as many times as needed until the washing water became clear. Then the seeds were disinfected with 70% alcohol for 30 seconds and then with 5% sodium hypochlorite. The seeds were cultivated in a horizontal shaker for 20 minutes, disinfected with sodium hypochlorite and washed with sterile water for 5 times, placed on a sterile absorbent paper to air-dry the surface moisture of the seeds, and inoculated in an induction medium to cultivate the callus at 28° C. • 4) Infection of rice callus with Agrobacterium: the Huaidao No. 5 callus with a diameter of 3 mm was selected for sub-cultivation for 10 days and the callus was collected into a 50 ml centrifuge tube. […]

Row | Molecule | growth of ΔhemG transformant on LB medium containing compound A, compared with the wild type [1] | enzyme activity relative to WT [2] | tolerance to compound A compared with wild-type Arabidopsis thaliana ([3]; different concentrations of compound A) | tolerance to flumioxazin compared with wild-type Arabidopsis thaliana ([3]; different concentrations of flumioxazin) | tolerance to saflufenacil compared with wild-type Arabidopsis thaliana ([3]; different concentrations of saflufenacil) | tolerance/resistance to compound A compared with wild-type Huaidao No. 5 ([4]; T0 generation rice seedlings, compound A sprayed) | resistance compared with the wild-type control ([4]; compound A 135 g/ha and 270 g/ha)
1 | Y425I: Amino-acid sequence of PPO1 from rice mutant (protein, Amino-acid sequence of PPO1 from rice mutant (OsPPO1 Y425I)) MAAAAAAMATATSATAAPPLRIRDAARRTRRRGHVRCAVASGAAEAPAAPGARVSADCVVVGGGISGLCTAQALATKHGVGDVLVTEARARPGGNITTAERAGEGYLWEEGPNSFQPSDPVLTMAVDSGLKDDLVFGDPNAPRFVLWEGKLRPVPSKPGDLPFFDLMSIPGKLRAGLGALGVRAPPPGREESVEDFVRRNLGAEVFERLIEPFCSGVYAGDPSKLSMKAAFGKVWRLEDTGGSIIGGTIKTIQERGKNPKPPRDPRLPTPKGQTVASFRKGLTMLPDAITSRLGSKVKLSWKLTSITKSDNKGYALVYETPEGVVSVQAKTVVMTIPSYVASDILRPLSSDAADALSIFYYPPVAAVTVSYPKEAIRKECLIDGELQGFGQLHPRSQGVETLGTIYSSSLFPNRAPAGRVLLLNIIGGSTNTGIVSKTESELVEAVDRDLRKMLINPKAVDPLVLGVRVWPQAIPQFLIGHLDHLEAAKSALGKGGYDGLFLGGNYVAGVALGRCVEGAYESASQISDYLTKYAYK | grew normally | lower than WT | – | – | – | – | –
2 | OsPPO1 WT: Amino-acid sequence of PPO1 from wild-type rice (protein, Amino-acid sequence of PPO1 from wild-type rice (OsPPO1 WT)) MAAAAAAMATATSATAAPPLRIRDAARRTRRRGHVRCAVASGAAEAPAAPGARVSADCVVVGGGISGLCTAQALATKHGVGDVLVTEARARPGGNITTAERAGEGYLWEEGPNSFQPSDPVLTMAVDSGLKDDLVFGDPNAPRFVLWEGKLRPVPSKPGDLPFFDLMSIPGKLRAGLGALGVRAPPPGREESVEDFVRRNLGAEVFERLIEPFCSGVYAGDPSKLSMKAAFGKVWRLEDTGGSIIGGTIKTIQERGKNPKPPRDPRLPTPKGQTVASFRKGLTMLPDAITSRLGSKVKLSWKLTSITKSDNKGYALVYETPEGVVSVQAKTVVMTIPSYVASDILRPLSSDAADALSIFYYPPVAAVTVSYPKEAIRKECLIDGELQGFGQLHPRSQGVETLGTIYSSSLFPNRAPAGRVLLLNYIGGSTNTGIVSKTESELVEAVDRDLRKMLINPKAVDPLVLGVRVWPQAIPQFLIGHLDHLEAAKSALGKGGYDGLFLGGNYVAGVALGRCVEGAYESASQISDYLTKYAYK | – | – | certain level of tolerance | certain level of tolerance | certain level of tolerance | certain level of tolerance/resistance | showed no difference
